Drawing on paper PMC10786891, “Massively parallel profiling of RNA-targeting CRISPR-Cas13d”, this text covers Kd for 38 molecules.

To fix the notation:
T1: EsCas13d, nuclease-dead (Eubacterium siraeum, UniProt B0MS50, R295A;H300A;R849A;H854A)
T1 sequence: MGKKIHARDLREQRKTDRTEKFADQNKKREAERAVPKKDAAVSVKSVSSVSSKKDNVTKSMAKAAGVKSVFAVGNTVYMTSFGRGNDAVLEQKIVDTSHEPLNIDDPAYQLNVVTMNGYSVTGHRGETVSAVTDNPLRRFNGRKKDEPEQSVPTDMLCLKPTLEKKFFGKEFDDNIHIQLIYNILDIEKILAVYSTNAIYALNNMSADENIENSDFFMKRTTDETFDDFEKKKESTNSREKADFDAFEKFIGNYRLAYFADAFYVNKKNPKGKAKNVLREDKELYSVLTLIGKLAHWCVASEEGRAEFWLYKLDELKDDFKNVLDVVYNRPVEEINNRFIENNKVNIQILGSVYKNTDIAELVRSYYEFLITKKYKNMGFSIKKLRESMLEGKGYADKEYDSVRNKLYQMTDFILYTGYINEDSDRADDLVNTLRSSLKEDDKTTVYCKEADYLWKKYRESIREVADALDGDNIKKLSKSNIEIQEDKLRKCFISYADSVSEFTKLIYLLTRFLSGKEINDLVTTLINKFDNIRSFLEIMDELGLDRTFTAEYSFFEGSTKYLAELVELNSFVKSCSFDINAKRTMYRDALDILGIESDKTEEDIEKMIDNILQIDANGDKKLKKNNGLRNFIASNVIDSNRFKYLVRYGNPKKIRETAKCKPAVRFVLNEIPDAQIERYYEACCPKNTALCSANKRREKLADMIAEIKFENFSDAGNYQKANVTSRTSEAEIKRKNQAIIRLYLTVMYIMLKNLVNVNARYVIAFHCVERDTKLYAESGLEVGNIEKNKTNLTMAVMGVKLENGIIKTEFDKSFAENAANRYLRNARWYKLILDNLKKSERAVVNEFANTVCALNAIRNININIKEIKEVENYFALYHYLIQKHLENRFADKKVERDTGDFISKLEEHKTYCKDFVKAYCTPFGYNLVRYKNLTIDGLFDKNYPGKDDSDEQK

B1: target 1 MT 5'PFS AGA 3'PFS UGC (mixed)
RNA 1: CACCCGUGCAAAAAUGCAGGGGUCUAAAACUGAGCGGAUAACCUCUCUAUGG
RNA 2: GGGAAUGGAUCCACAUCUACGAAUUCAGACCAUAGAGAGGUUAUCCGCUCAUGCAGAUCGGAAGAGCACACGU
B2: target 1 C6A,C22U (mixed)
RNA 1: B1 RNA 1
RNA 2: B1 RNA 2 with A27G, G28U, C30U, C46A, U52C, G53C, C54G
B3: target 1 MT 5'PFS AAG 3'PFS CAU (mixed)
RNA 1: B1 RNA 1
RNA 2: B1 RNA 2 with G28A, A29G, U52C, G53A, C54U
B4: target 1 MT 5'PFS GCC 3'PFS AUC (mixed)
RNA 1: B1 RNA 1
RNA 2: B1 RNA 2 with A27G, G28C, A29C, U52A, G53U
B5: target 1 MT 5'PFS GUA 3'PFS GUA (mixed)
RNA 1: B1 RNA 1
RNA 2: B1 RNA 2 with A27G, G28U, U52G, G53U, C54A
B6: target 1 MT 5'PFS AAG 3'PFS CAC (mixed)
RNA 1: B1 RNA 1
RNA 2: B1 RNA 2 with G28A, A29G, U52C, G53A
B7: target 1 MT 5'PFS CAG 3'PFS CCC (mixed)
RNA 1: B1 RNA 1
RNA 2: B1 RNA 2 with A27C, G28A, A29G, U52C, G53C
B8: target 1 MT 5'PFS GCC 3'PFS AUA (mixed)
RNA 1: B1 RNA 1
RNA 2: B1 RNA 2 with A27G, G28C, A29C, U52A, G53U, C54A
B9: target 1 MT 5'PFS GCC 3'PFS AUG (mixed)
RNA 1: B1 RNA 1
RNA 2: B1 RNA 2 with A27G, G28C, A29C, U52A, G53U, C54G
B10: target 1 MT 5'PFS GUC 3'PFS CUA (mixed)
RNA 1: B1 RNA 1
RNA 2: B1 RNA 2 with A27G, G28U, A29C, U52C, G53U, C54A
B11: target 1 MT 5'PFS GUA 3'PFS GCA (mixed)
RNA 1: B1 RNA 1
RNA 2: B1 RNA 2 with A27G, G28U, U52G, G53C, C54A
B12: target 1 MT 5'PFS GCA 3'PFS AAC (mixed)
RNA 1: B1 RNA 1
RNA 2: B1 RNA 2 with A27G, G28C, U52A, G53A
B13: target 1 A1C,G17C (mixed)
RNA 1: B1 RNA 1
RNA 2: B1 RNA 2 with A27G, G28U, G35C, A51C, U52C, G53C, C54G
B14: target 1 MT 5'PFS AAU 3'PFS UAG (mixed)
RNA 1: B1 RNA 1
RNA 2: B1 RNA 2 with G28A, A29U, G53A, C54G
B15: target 1 MT 5'PFS GUA 3'PFS GCU (mixed)
RNA 1: B1 RNA 1
RNA 2: B1 RNA 2 with A27G, G28U, U52G, G53C, C54U
B16: target 1 MT 5'PFS GCA 3'PFS AAU (mixed)
RNA 1: B1 RNA 1
RNA 2: B1 RNA 2 with A27G, G28C, U52A, G53A, C54U
B17: target 1 MT 5'PFS CAU 3'PFS CCG (mixed)
RNA 1: B1 RNA 1
RNA 2: B1 RNA 2 with A27C, G28A, A29U, U52C, G53C, C54G
B18: target 1 MT 5'PFS GUC 3'PFS CUC (mixed)
RNA 1: B1 RNA 1
RNA 2: B1 RNA 2 with A27G, G28U, A29C, U52C, G53U
B19: target 1 A9U,C21U (mixed)
RNA 1: B1 RNA 1
RNA 2: B1 RNA 2 with A27G, G28U, C31U, A43U, U52C, G53C, C54G
B20: target 1 MT 5'PFS GUA 3'PFS GCC (mixed)
RNA 1: B1 RNA 1
RNA 2: B1 RNA 2 with A27G, G28U, U52G, G53C
B21: target 1 MT 5'PFS CCU 3'PFS UCU (mixed)
RNA 1: B1 RNA 1
RNA 2: B1 RNA 2 with A27C, G28C, A29U, G53C, C54U
B22: target 1 MT 5'PFS CUA 3'PFS CCG (mixed)
RNA 1: B1 RNA 1
RNA 2: B1 RNA 2 with A27C, G28U, U52C, G53C, C54G
B23: target 1 MT 5'PFS AAG 3'PFS CAA (mixed)
RNA 1: B1 RNA 1
RNA 2: B1 RNA 2 with G28A, A29G, U52C, G53A, C54A
B24: target 1 insA 3' of 17,insA 3' of 6 (mixed)
RNA 1: B1 RNA 1
RNA 2: GGGAAUGGAUCCACAUCUACGAAUUCGUACCAUAGAAGAGGUUAUCCAGCUCACCGAGAUCGGAAGAGCACACGU
B25: target 1 MT 5'PFS AGA 3'PFS UGU (mixed)
RNA 1: B1 RNA 1
RNA 2: B1 RNA 2 with C54U
B26: target 1 MT 5'PFS AAG 3'PFS CAG (mixed)
RNA 1: B1 RNA 1
RNA 2: B1 RNA 2 with G28A, A29G, U52C, G53A, C54G
B27: target 1 MT 5'PFS CCG 3'PFS AUA (mixed)
RNA 1: B1 RNA 1
RNA 2: B1 RNA 2 with A27C, G28C, A29G, U52A, G53U, C54A
B28: target 1 MT 5'PFS ACA 3'PFS CUA (mixed)
RNA 1: B1 RNA 1
RNA 2: B1 RNA 2 with G28C, U52C, G53U, C54A
B29: target 1 MT 5'PFS GCC 3'PFS AUU (mixed)
RNA 1: B1 RNA 1
RNA 2: B1 RNA 2 with A27G, G28C, A29C, U52A, G53U, C54U
B30: target 1 MT 5'PFS GUG 3'PFS GGC (mixed)
RNA 1: B1 RNA 1
RNA 2: B1 RNA 2 with A27G, G28U, A29G, U52G
B31: target 1 MT 5'PFS GUC 3'PFS CUG (mixed)
RNA 1: B1 RNA 1
RNA 2: B1 RNA 2 with A27G, G28U, A29C, U52C, G53U, C54G
B32: target 1 MT 5'PFS GUG 3'PFS GGG (mixed)
RNA 1: B1 RNA 1
RNA 2: B1 RNA 2 with A27G, G28U, A29G, U52G, C54G
B33: target 1 MT 5'PFS GCA 3'PFS AAA (mixed)
RNA 1: B1 RNA 1
RNA 2: B1 RNA 2 with A27G, G28C, U52A, G53A, C54A
B34: target 1 MT 5'PFS ACA 3'PFS AGA (mixed)
RNA 1: B1 RNA 1
RNA 2: B1 RNA 2 with G28C, U52A, C54A
B35: target 1 MT 5'PFS GUC 3'PFS CUU (mixed)
RNA 1: B1 RNA 1
RNA 2: B1 RNA 2 with A27G, G28U, A29C, U52C, G53U, C54U
B36: target 1 MT 5'PFS GUA 3'PFS GCG (mixed)
RNA 1: B1 RNA 1
RNA 2: B1 RNA 2 with A27G, G28U, U52G, G53C, C54G
B37: target 1 MT 5'PFS GCA 3'PFS AAG (mixed)
RNA 1: B1 RNA 1
RNA 2: B1 RNA 2 with A27G, G28C, U52A, G53A, C54G
B38: target 1 MT 5'PFS AAU 3'PFS UAU (mixed)
RNA 1: B1 RNA 1
RNA 2: B1 RNA 2 with G28A, A29U, G53A, C54U

Substitutions are numbered along the chain they refer to. Numbers in names are those of the source.

This data set has as its target T1, EsCas13d, nuclease-dead. In words: crRNA (strand 1, pre-loaded); Mg2+; 40 mM Tris-HCl pH 7.5, 150 mM NaCl, 6 mM MgCl2, 1 mM DTT, 0.1% Tween-20, 0.2 mg/ml BSA; 25 C; 10 min per concentration, then washed. Particulars: tags: His6-TwinStrep-SUMO cleaved; N-terminal SNAP kept (SNAP-Surface 488); label: 3' end held by stalled T7 RNA polymerase.
The Kd is the free concentration of one partner at which half of the binding sites on the other are occupied at equilibrium, for simple one-to-one binding. Low readings indicate higher affinity, high ones lower affinity. B1 gave a Kd of about 53.5 nM.
The molecule B2 returned a dissociation constant (Kd) of 11.6 ± 0.7 nM.
With B3, the Kd amounted to 23 ± 10.5 nM.
On to B4, for which binding was characterised by a dissociation constant (Kd) of 32 ± 11 nM.
With B5, the affinity, expressed as Kd, was 12.1 ± 1.5 nM. This Kd is about 2.6-fold lower than that of the molecule before.
For B6, the Kd is about 50.5 nM.
B7 showed a Kd of about 49 nM.
For B8 the value was 13.8 ± 2.4 nM; for B9, 16.5 ± 6 nM.
Regarding B10, the Kd turned out to be 17.5 ± 4 nM.
Molecule B11 showed an equilibrium dissociation constant (Kd) of 13.8 ± 1.4 nM.
For the molecule B12, the Kd was 24 ± 6 nM.
With B13, binding was characterised by a dissociation constant (Kd) of 54 ± 15 nM.
The molecule B14 yielded a Kd of 41.5 ± 20 nM.
In the case of B15, the Kd amounted to 4.18 ± 0.37 nM.
For B16 the value was 41.5 ± 10 nM; for B17, 23 ± 8.5 nM; for B18, 39.5 ± 12.5 nM.
On to B19, for which the dissociation constant Kd was 8.7 ± 0.8 nM. Compared with the last molecule, the Kd is about 4.5-fold lower.
Regarding B20, the Kd was found to be 8.5 ± 1 nM.
For B21 the value was 14.4 ± 3.1 nM; for B22, 5.05 ± 1.7 nM; for B23, 59 ± 29.5 nM.
Regarding B24, binding was characterised by a dissociation constant (Kd) of 18.3 ± 1.4 nM.
B25 gave a Kd of 110 ± 50 nM.
The molecule B26 showed a Kd of about 37.5 nM.
For the molecule B27, binding was characterised by a dissociation constant (Kd) of 5.1 ± 1.45 nM.
With B28, binding was characterised by a dissociation constant (Kd) of 12.7 ± 3.5 nM.
The figure for B29 is 16.9 ± 4.1 nM; for B30 it is 14 ± 2.25 nM.
The figure for B31 is 12.8 ± 2.9 nM; for B32 it is 32.9 ± 2.9 nM.
Molecule B33 gave a Kd of 31.5 ± 7.5 nM.
Molecule B34 displayed a Kd of 66.5 ± 24 nM.
B35: binding was characterised by a dissociation constant (Kd) of 13.8 ± 2.6 nM.
B36 had a Kd of 7.29 ± 0.49 nM.
For the molecule B37, the Kd stood at 32.5 ± 8 nM.
As for B38, the Kd was found to be 72 ± 27 nM.
